In patent US20240182541A1 (CONCEPT TO MEDICINE BIOTECH, published 2024):
Blank lines part the entries; values can stand above or below the binder they belong to.

Key:
[1] = target: T1, B7-H3 on B7H3-expressing A375 and A375.S2 cells (UniProt Q5ZPR3 29-534, limits assumed); experiment: cell-based binding on A375 and A375.S2 cells (FIG. 13)
T1 construct: whole, on cells
T1 sequence (looked up): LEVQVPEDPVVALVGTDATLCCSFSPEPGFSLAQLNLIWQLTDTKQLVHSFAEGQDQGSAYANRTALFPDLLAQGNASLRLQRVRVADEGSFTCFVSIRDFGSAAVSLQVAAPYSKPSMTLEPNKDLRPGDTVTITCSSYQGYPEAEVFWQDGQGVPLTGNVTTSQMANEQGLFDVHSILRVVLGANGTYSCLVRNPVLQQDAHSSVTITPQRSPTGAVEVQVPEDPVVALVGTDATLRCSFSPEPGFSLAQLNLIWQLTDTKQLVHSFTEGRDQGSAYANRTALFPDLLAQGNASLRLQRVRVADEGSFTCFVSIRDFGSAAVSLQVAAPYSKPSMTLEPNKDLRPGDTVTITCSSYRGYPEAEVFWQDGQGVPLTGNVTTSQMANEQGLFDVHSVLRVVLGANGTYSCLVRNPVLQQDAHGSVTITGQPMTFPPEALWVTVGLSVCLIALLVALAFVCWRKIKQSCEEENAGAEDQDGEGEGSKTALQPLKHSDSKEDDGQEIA

[2] = target: T1, B7-H3 on B7H3-expressing A375 and …; experiment: binding to B7H3-expressing A375 cell line (FIG. 18)
Description: The binding of these prodrugs against B7H3-expressing A375 cell line were tested.

[3] = target: T1, B7-H3 on B7H3-expressing A375 and …; experiment: FACS on B7H3-expressing A375 and A375.S2 cells
[4] = target: T1, B7-H3 on B7H3-expressing A375 and …; experiment: cell-based binding assay (FIG. 15A)

binding result [1]: binds
B1: Format 30 (KIH CH3Δ6 mask + cleavable linker PLGLAGGGGS on MGA017 variable regions, mIgG1) (antibody)
heavy: GQPREPQVCTLPPSRDELTKNQVSLSCAVKGFYPSDIAVEWESNGQPENNYKTTPPVLDSDGSFFLVSKLTVDKSRWQQGNVFSCSVMHEALHNHYTQKSLPLGLAGGGGSEVQLVESGGGLVKPGGSLRLSCAASGFTFSSYGMSWVRQAPGKGLEWVATINSGGSNTYYPDSLKGRFTISRDNAKNSLYLQMNSLRAEDTAVYYCARHDGGAMDYWGQGTTVTVSSAKTTPPSVYPLAPGSAAQTNSMVTLGCLVKGYFPEPVTVTWNSGSLSSGVHTFPAVLQSDLYTLSSSVTVPSSTWPSETVTCNVAHPASSTKVDKKIVPRDCGCKPCICTVPEVSSVFIFPPKPKDVLTITLTPKVTCVVVDISKDDPEVQFSWFVDDVEVHTAQTQPREEQFNSTFRSVSELPIMHQDWLNGKEFKCRVNSAAFPAPIEKTISKTKGRPKAPQVYTIPPPKEQMAKDKVSLTCMITDFFPEDITVEWQWNGQPAENYKNTQPIMDTDGSYFVYSKLNVQKSNWEAGNTFTCSVLHEGLHNHHTEKSLSHSPGK
light: GQPREPQVYTLPPCRDELTKNQVSLWCLVKGFYPSDIAVEWESNGQPENNYKTTPPVLDSDGSFFLYSKLTVDKSRWQQGNVFSCSVMHEALHNHYTQKSLPLGLAGGGGSDIQMTQSPSSLSASVGDRVTITCRASESIYSYLAWYQQKPGKAPKLLVYNTKTLPEGVPSRFSGSGSGTDFTLTISSLQPEDFATYYCQHHYGTPPWTFGQGTRLEIKRADAAPTVSIFPPSSEQLTSGGASVVCFLNNFYPKDINVKWKIDGSERQNGVLNSWTDQDSKDSTYSMSSTLTLTKDEYERHNSYTCEATHKTSTSPIVKSFNRNEC
notes: Antibody prodrug against B7-H3, uncleaved

binding result [2]: binds
B2: Format 34 (CLκ on VH / CH1 plus EPKSC on VL as mask + GGGS on MGA017 variable regions, hIgG1) (antibody)
heavy: not shown
light: ASTKGPSVFPLAPSSKSTSGGTAALGCLVKDYFPEPVTVSWNSGALTSGVHTFPAVLQSSGLYSLSSVVTVPSSSLGTQTYICNVNHKPSNTKVDKKVEPKSCGGGSDIQMTQSPSSLSASVGDRVTITCRASESIYSYLAWYQQKPGKAPKLLVYNTKTLPEGVPSRFSGSGSGTDFTLTISSLQPEDFATYYCQHHYGTPPWTFGQGTRLEIKRTVAAPSVFIFPPSDEQLKSGTASVVCLLNNFYPREAKVQWKVDNALQSGNSQESVTEQDSKDSTYSLSSTLTLSKADYEKHKVYACEVTHQGLSSPVTKSFNRGEC
notes: Antibody prodrug against B7-H3

binding result [3]: binds
B3: MGA017 (parental naked anti-B7-H3 antibody) (antibody, V domains shown)
VH: EVQLVESGGGLVKPGGSLRLSCAASGFTFSSYGMSWVRQAPGKGLEWVATINSGGSNTYYPDSLKGRFTISRDNAKNSLYLQMNSLRAEDTAVYYCARHDGGAMDYWGQGTTVTVSS
VL: DIQMTQSPSSLSASVGDRVTITCRASESIYSYLAWYQQKPGKAPKLLVYNTKTLPEGVPSRFSGSGSGTDFTLTISSLQPEDFATYYCQHHYGTPPWTFGQGTRLEIK
notes: Anti-B7-H3 antibody from MacroGenics; also called un-masked MGA017; parental naked antibody of Format 12

binding result [1]: binds
B4: MGA017-mIgG1 (parental antibody of Formats 28-31) (antibody, V domains shown)
VH: B3 VH
VL: B3 VL
notes: mIgG1; also called parental antibody MGA017; naked antibody MGA017

binding result [1]: binds
B5: Format 28 (KIH CH3Δ6 mask + cleavable linker IPVSLRSG on MGA017 variable regions, mIgG1) (antibody)
heavy: GQPREPQVCTLPPSRDELTKNQVSLSCAVKGFYPSDIAVEWESNGQPENNYKTTPPVLDSDGSFFLVSKLTVDKSRWQQGNVFSCSVMHEALHNHYTQKSLIPVSLRSGEVQLVESGGGLVKPGGSLRLSCAASGFTFSSYGMSWVRQAPGKGLEWVATINSGGSNTYYPDSLKGRFTISRDNAKNSLYLQMNSLRAEDTAVYYCARHDGGAMDYWGQGTTVTVSSAKTTPPSVYPLAPGSAAQTNSMVTLGCLVKGYFPEPVTVTWNSGSLSSGVHTFPAVLQSDLYTLSSSVTVPSSTWPSETVTCNVAHPASSTKVDKKIVPRDCGCKPCICTVPEVSSVFIFPPKPKDVLTITLTPKVTCVVVDISKDDPEVQFSWFVDDVEVHTAQTQPREEQFNSTFRSVSELPIMHQDWLNGKEFKCRVNSAAFPAPIEKTISKTKGRPKAPQVYTIPPPKEQMAKDKVSLTCMITDFFPEDITVEWQWNGQPAENYKNTQPIMDTDGSYFVYSKLNVQKSNWEAGNTFTCSVLHEGLHNHHTEKSLSHSPGK
light: GQPREPQVYTLPPCRDELTKNQVSLWCLVKGFYPSDIAVEWESNGQPENNYKTTPPVLDSDGSFFLYSKLTVDKSRWQQGNVFSCSVMHEALHNHYTQKSLIPVSLRSGDIQMTQSPSSLSASVGDRVTITCRASESIYSYLAWYQQKPGKAPKLLVYNTKTLPEGVPSRFSGSGSGTDFTLTISSLQPEDFATYYCQHHYGTPPWTFGQGTRLEIKRADAAPTVSIFPPSSEQLTSGGASVVCFLNNFYPKDINVKWKIDGSERQNGVLNSWTDQDSKDSTYSMSSTLTLTKDEYERHNSYTCEATHKTSTSPIVKSFNRNEC
notes: as for B1

binding result [1]: binds
B6: Format 29 (KIH CH3Δ6 mask + cleavable linker PLGLAG on MGA017 variable regions, mIgG1) (antibody)
heavy: GQPREPQVCTLPPSRDELTKNQVSLSCAVKGFYPSDIAVEWESNGQPENNYKTTPPVLDSDGSFFLVSKLTVDKSRWQQGNVFSCSVMHEALHNHYTQKSLPLGLAGEVQLVESGGGLVKPGGSLRLSCAASGFTFSSYGMSWVRQAPGKGLEWVATINSGGSNTYYPDSLKGRFTISRDNAKNSLYLQMNSLRAEDTAVYYCARHDGGAMDYWGQGTTVTVSSAKTTPPSVYPLAPGSAAQTNSMVTLGCLVKGYFPEPVTVTWNSGSLSSGVHTFPAVLQSDLYTLSSSVTVPSSTWPSETVTCNVAHPASSTKVDKKIVPRDCGCKPCICTVPEVSSVFIFPPKPKDVLTITLTPKVTCVVVDISKDDPEVQFSWFVDDVEVHTAQTQPREEQFNSTFRSVSELPIMHQDWLNGKEFKCRVNSAAFPAPIEKTISKTKGRPKAPQVYTIPPPKEQMAKDKVSLTCMITDFFPEDITVEWQWNGQPAENYKNTQPIMDTDGSYFVYSKLNVQKSNWEAGNTFTCSVLHEGLHNHHTEKSLSHSPGK
light: GQPREPQVYTLPPCRDELTKNQVSLWCLVKGFYPSDIAVEWESNGQPENNYKTTPPVLDSDGSFFLYSKLTVDKSRWQQGNVFSCSVMHEALHNHYTQKSLPLGLAGDIQMTQSPSSLSASVGDRVTITCRASESIYSYLAWYQQKPGKAPKLLVYNTKTLPEGVPSRFSGSGSGTDFTLTISSLQPEDFATYYCQHHYGTPPWTFGQGTRLEIKRADAAPTVSIFPPSSEQLTSGGASVVCFLNNFYPKDINVKWKIDGSERQNGVLNSWTDQDSKDSTYSMSSTLTLTKDEYERHNSYTCEATHKTSTSPIVKSFNRNEC
notes: as for B1

binding result [2]: binds
B7: Format 33 (IgG1 CH3Δ6 hole / IgG4 CH3Δ6 knob mask + GGGS on MGA017 variable regions, hIgG1) (antibody)
heavy: not shown
light: GQPREPQVYTLPPCQEEMTKNQVSLWCLVKGFYPSDIAVEWESNGQPENNYKTTPPVLDSDGSFFLYSRLTVDKSRWQEGNVFSCSVMHEALHNHYTQKSLGGGSDIQMTQSPSSLSASVGDRVTITCRASESIYSYLAWYQQKPGKAPKLLVYNTKTLPEGVPSRFSGSGSGTDFTLTISSLQPEDFATYYCQHHYGTPPWTFGQGTRLEIKRTVAAPSVFIFPPSDEQLKSGTASVVCLLNNFYPREAKVQWKVDNALQSGNSQESVTEQDSKDSTYSLSSTLTLSKADYEKHKVYACEVTHQGLSSPVTKSFNRGEC
notes: as for B2

binding result [4]: binds
B8: Format 31 (KIH CH3Δ6 mask + cleavable linker IPVSLRSGPLGLAG on MGA017 variable regions, mIgG1) (antibody)
heavy: GQPREPQVCTLPPSRDELTKNQVSLSCAVKGFYPSDIAVEWESNGQPENNYKTTPPVLDSDGSFFLVSKLTVDKSRWQQGNVFSCSVMHEALHNHYTQKSLIPVSLRSGPLGLAGEVQLVESGGGLVKPGGSLRLSCAASGFTFSSYGMSWVRQAPGKGLEWVATINSGGSNTYYPDSLKGRFTISRDNAKNSLYLQMNSLRAEDTAVYYCARHDGGAMDYWGQGTTVTVSSAKTTPPSVYPLAPGSAAQTNSMVTLGCLVKGYFPEPVTVTWNSGSLSSGVHTFPAVLQSDLYTLSSSVTVPSSTWPSETVTCNVAHPASSTKVDKKIVPRDCGCKPCICTVPEVSSVFIFPPKPKDVLTITLTPKVTCVVVDISKDDPEVQFSWFVDDVEVHTAQTQPREEQFNSTFRSVSELPIMHQDWLNGKEFKCRVNSAAFPAPIEKTISKTKGRPKAPQVYTIPPPKEQMAKDKVSLTCMITDFFPEDITVEWQWNGQPAENYKNTQPIMDTDGSYFVYSKLNVQKSNWEAGNTFTCSVLHEGLHNHHTEKSLSHSPGK
light: GQPREPQVYTLPPCRDELTKNQVSLWCLVKGFYPSDIAVEWESNGQPENNYKTTPPVLDSDGSFFLYSKLTVDKSRWQQGNVFSCSVMHEALHNHYTQKSLIPVSLRSGPLGLAGDIQMTQSPSSLSASVGDRVTITCRASESIYSYLAWYQQKPGKAPKLLVYNTKTLPEGVPSRFSGSGSGTDFTLTISSLQPEDFATYYCQHHYGTPPWTFGQGTRLEIKRADAAPTVSIFPPSSEQLTSGGASVVCFLNNFYPKDINVKWKIDGSERQNGVLNSWTDQDSKDSTYSMSSTLTLTKDEYERHNSYTCEATHKTSTSPIVKSFNRNEC
notes: as for B1
